According to publication PMC3367197 (Nucleic Acids Research, 2012):
Where “and” joins values, the source holds several entries; their conditions need not be identical. Equal entries are not always repeated.

Experiments:
[1] = target: His-tagged human NPM3 (human) (UniProt O75607); test: native gel or EMSA
[2] = target: His-tagged human NPM3 (human) (UniProt O75607); test: native MS
His-tagged human NPM1 = His-tagged human NPM1 (human, UniProt P06748 1-294); test: native gel or EMSA
cross-linking = target: the molecule itself; test: cross-linking

His-tagged human NPM1, sequence (P06748 whole entry): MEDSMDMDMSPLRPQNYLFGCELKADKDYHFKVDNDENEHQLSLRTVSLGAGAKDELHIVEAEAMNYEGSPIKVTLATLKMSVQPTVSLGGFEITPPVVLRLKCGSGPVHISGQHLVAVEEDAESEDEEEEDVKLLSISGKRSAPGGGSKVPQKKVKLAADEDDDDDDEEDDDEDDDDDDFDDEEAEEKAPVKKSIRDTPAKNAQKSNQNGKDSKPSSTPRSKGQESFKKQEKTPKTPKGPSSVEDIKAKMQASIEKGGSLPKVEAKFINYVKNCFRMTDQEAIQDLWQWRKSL

**Q.** Which stoichiometry N [1] does the source give for “His-tagged human NPM3 (from UniProt O75607 1-178) (natural protein)” here?
**A.** Its stoichiometry N is 2.

**Q.** What about the stoichiometry N [2] of the same molecule?
**A.** Its stoichiometry N is 2.

B1: His-tagged human NPM3 (natural protein)
chain: MAAGTAAALAFLSQESRTRAGGVGGLRVPAPVTMDSFFFGCELSGHTRSFTFKVEEEDDAEHVLALTMLCLTEGAKDECNVVEVVARNHDHQEIAVPVANLKLSCQPMLSLDDFQLQPPVTFRLKSGSGPVRITGRHQIVTMSNDVSEEESEEEEEDSDEEEVELCPILPAKKQGGRP
**Q.** How did the “stoichiometry N” value (His-tagged human NPM1) turn out when B1 was run?
**A.** Its value is 4 NPM1 per NPM3 (NPM1:NPM3 4:1).

B2: His-tagged human NPM2 (natural protein)
chain: MNLSSASSTEEKAVTTVLWGCELSQERRTWTFRPQLEGKQSCRLLLHTICLGEKAKEEMHRVEILPPANQEDKKMQPVTIASLQASVLPMVSMVGVQLSPPVTFQLRAGSGPVFLSGQERYEASDLTWEEEEEEEGEEEEEEEEDDEDEDADISLEEQSPVKQVKRLVPQKQASVAKKKKLEKEEEEIRASVRDKSPVKKAKATARAKKPGFKK
**Q.** Which “stoichiometry N” value (cross-linking) does the source give for B2 here?
**A.** Its value is 5 and 10.
